The target of the test is papain (UniProt P00784).
Chain of UniProt P00784 (P00784 134-345): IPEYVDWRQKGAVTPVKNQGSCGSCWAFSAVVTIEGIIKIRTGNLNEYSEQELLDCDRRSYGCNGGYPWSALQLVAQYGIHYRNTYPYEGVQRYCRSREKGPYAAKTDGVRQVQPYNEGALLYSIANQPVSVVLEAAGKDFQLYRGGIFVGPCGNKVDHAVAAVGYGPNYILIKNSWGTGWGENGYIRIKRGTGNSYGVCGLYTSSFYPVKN

Regarding His-SSPbP53 (natural protein), the degradation of fluorescein-labeled casein by papain (100 μg/mL) with His-SSPbP53 at 100 and 500 nM, 1 h at room temperature (% reduction of activity) was above 50.
